Where a chain is given by its changes, count along the chain named. Names and notes keep the numbering of the source.
B1: S308Q: mutation to UGT enzyme of SEQ ID NO: 14 (protein)
chain: MATKNSSGMSLAERFWLTLSRSSLVVGRSCVEFEPETVPLLSTLRGKPITFLGLMPPLHEGRREDGEDATVRWLDAQPAKSVVYVALGSEVPLGVEKVHELALGLELAGTRFLWALRKPTGVSDADLLPAGFEERTRGRGVVATRWVPQMSILAHAAVGAFLTHCGWNSTIEGLMFGHPLIMLPITGDQGPNARLIEAKNAGLQVARNDGDGSFDREGVAAAIRAVAVEEESSKVFQAKAKKLQEIVADMACHERYIDGFIQQLRSYKDDSGYSSSYAAAAGMHVVICPWLAFGHLLPCLDLAQRLAQRGHRVSFVSTPRNISRLPPVRPALAPLVAFVALPLPRVEGLPDGAESTNDVPHDRPDMVELHRRAFDGLAAPFSEFLGTACADWVIVDSFHHWAAAAALEHKVPCAMMLLGSAEMIASIADERLEHAETESPAAAGQGRPAAAPTFEVARMKLIR
B2: L58S: mutation to UGT enzyme of SEQ ID NO: 14 (protein)
chain: B1 chain with L58S, Q308S
B3: S42E: mutation to UGT enzyme of SEQ ID NO: 14 (protein)
chain: B1 chain with S42E, Q308S
B4: S323A: mutation to UGT enzyme of SEQ ID NO: 14 (protein)
chain: B1 chain with Q308S, S323A
B5: A79P: mutation to UGT enzyme of SEQ ID NO: 14 (protein)
chain: B1 chain with A79P, Q308S
B6: M250D_A251E_C252V: mutation to UGT enzyme of SEQ ID NO: 14 (protein)
chain: B1 chain with M250D, A251E, C252V, Q308S
B7: W401F: mutation to UGT enzyme of SEQ ID NO: 14 (protein)
chain: B1 chain with Q308S, W401F
B8: H400Y: mutation to UGT enzyme of SEQ ID NO: 14 (protein)
chain: B1 chain with Q308S, H400Y
B9: A130D: mutation to UGT enzyme of SEQ ID NO: 14 (protein)
chain: B1 chain with A130D, Q308S
B10: S151R: mutation to UGT enzyme of SEQ ID NO: 14 (protein)
chain: B1 chain with S151R, Q308S
B11: G94T: mutation to UGT enzyme of SEQ ID NO: 14 (protein)
chain: B1 chain with G94T, Q308S
B12: V336I_F338L: mutation to UGT enzyme of SEQ ID NO: 14 (protein)
chain: B1 chain with Q308S, V336I, F338L
B13: S123D: mutation to UGT enzyme of SEQ ID NO: 14 (protein)
chain: B1 chain with S123D, Q308S
B14: E254D: mutation to UGT enzyme of SEQ ID NO: 14 (protein)
chain: B1 chain with E254D, Q308S
B15: F51W: mutation to UGT enzyme of SEQ ID NO: 14 (protein)
chain: B1 chain with F51W, Q308S
B16: T186M: mutation to UGT enzyme of SEQ ID NO: 14 (protein)
chain: B1 chain with T186M, Q308S
B17: L203I: mutation to UGT enzyme of SEQ ID NO: 14 (protein)
chain: B1 chain with L203I, Q308S
B18: T453M: mutation to UGT enzyme of SEQ ID NO: 14 (protein)
chain: B1 chain with Q308S, T453M
B19: P56A: mutation to UGT enzyme of SEQ ID NO: 14 (protein)
chain: B1 chain with P56A, Q308S
B20: S266R: mutation to UGT enzyme of SEQ ID NO: 14 (protein)
chain: B1 chain with S266R, Q308S
B21: ins_A2_T3_R: SEQ ID NO: 14 with insertion of Arg between A2 and T3 (protein)
chain: MARTKNSSGMSLAERFWLTLSRSSLVVGRSCVEFEPETVPLLSTLRGKPITFLGLMPPLHEGRREDGEDATVRWLDAQPAKSVVYVALGSEVPLGVEKVHELALGLELAGTRFLWALRKPTGVSDADLLPAGFEERTRGRGVVATRWVPQMSILAHAAVGAFLTHCGWNSTIEGLMFGHPLIMLPITGDQGPNARLIEAKNAGLQVARNDGDGSFDREGVAAAIRAVAVEEESSKVFQAKAKKLQEIVADMACHERYIDGFIQQLRSYKDDSGYSSSYAAAAGMHVVICPWLAFGHLLPCLDLAQRLASRGHRVSFVSTPRNISRLPPVRPALAPLVAFVALPLPRVEGLPDGAESTNDVPHDRPDMVELHRRAFDGLAAPFSEFLGTACADWVIVDSFHHWAAAAALEHKVPCAMMLLGSAEMIASIADERLEHAETESPAAAGQGRPAAAPTFEVARMKLIR
B22: ins_A2_T3_RR: SEQ ID NO: 14 with insertion of Arg-Arg between A2 and T3 (protein)
chain: MARRTKNSSGMSLAERFWLTLSRSSLVVGRSCVEFEPETVPLLSTLRGKPITFLGLMPPLHEGRREDGEDATVRWLDAQPAKSVVYVALGSEVPLGVEKVHELALGLELAGTRFLWALRKPTGVSDADLLPAGFEERTRGRGVVATRWVPQMSILAHAAVGAFLTHCGWNSTIEGLMFGHPLIMLPITGDQGPNARLIEAKNAGLQVARNDGDGSFDREGVAAAIRAVAVEEESSKVFQAKAKKLQEIVADMACHERYIDGFIQQLRSYKDDSGYSSSYAAAAGMHVVICPWLAFGHLLPCLDLAQRLASRGHRVSFVSTPRNISRLPPVRPALAPLVAFVALPLPRVEGLPDGAESTNDVPHDRPDMVELHRRAFDGLAAPFSEFLGTACADWVIVDSFHHWAAAAALEHKVPCAMMLLGSAEMIASIADERLEHAETESPAAAGQGRPAAAPTFEVARMKLIR

Test system: steviol glycoside
Test: steviol glycoside bioconversion by E. coli expressing individual mutations of UGT SEQ ID NO: 14
Format: cell-based
Conditions: fold improvement of % conversion vs parent UGT SEQ ID NO: 14; stevia leaf extract and glucose fed; 37° C., 48 hr
Protocol: Fold improvement is with respect to % steviol glycoside conversion of the parent UGT enzyme of SEQ ID NO: 14. The UGT enzyme of SEQ ID NO: 15 has the following mutations from SEQ ID NO: 14: ins_A2_T3_RR, H59P, A238E, L417F. Stevia leaf extract and glucose were fed to the bioconversion strains. Bioconversion took place at 37° C. for 48 hr. Data were quantified by reverse phase LC DAD to quantify conversion of steviol glycosides.
Fold improvement (FI) is with respect to % steviol glycoside conversion.

Molecule	FI %Stevioside→rebE	FI %rebA→rebD
B1	1.6	1.6
B2	1.5	1.4
B3	1.8	1.3
B4	1.3	1.3
B5	1.4	1.3
B6	1.5	1.4
B7	1.3	1.3
B8	1.2	1.3
B9	1.4	1.3
B10	1.6	1.5
B11	1.6	1.4
B12	1.5	1.4
B13	1.7	1.5
B14	1.7	1.5
B15	1.7	1.4
B16	1.5	1.4
B17	1.6	1.5
B18	1.7	1.5
B19	1.5	1.3
B20	1.4	1.3
B21	1.9	1.6
B22	2.4	2.0
